# B1: Estrogen receptor beta (Homo sapiens), Q92731-3 (parent)
# chain: MDIKNSPSSLNSPSSYNCSQSILPLEHGSIYIPSSYVDSHHEYPAMTFYSPAVMNYSIPSNVTNLEGGPGRQTTSPNVLWPTPGHLSPLVVHRQLSHLYAEPQKSPWCEARSLEHTLPVNRETLKRKVSGNRCASPVTGPGSKRDAHFCAVCSDYASGYHYGVWSCEGCKAFFKRSIQGHNDYICPATNQCTIDKNRRKSCQACRLRKCYEVGMVKCGSRRERCGYRLVRRQRSADEQLHCAGKAKRSGGHAPRVRELLLDALSPEQLVLTLLEAEPPHVLISRPSAPFTEASMMMSLTKLADKELVHMISWAKKIPGMRGNA
# partner: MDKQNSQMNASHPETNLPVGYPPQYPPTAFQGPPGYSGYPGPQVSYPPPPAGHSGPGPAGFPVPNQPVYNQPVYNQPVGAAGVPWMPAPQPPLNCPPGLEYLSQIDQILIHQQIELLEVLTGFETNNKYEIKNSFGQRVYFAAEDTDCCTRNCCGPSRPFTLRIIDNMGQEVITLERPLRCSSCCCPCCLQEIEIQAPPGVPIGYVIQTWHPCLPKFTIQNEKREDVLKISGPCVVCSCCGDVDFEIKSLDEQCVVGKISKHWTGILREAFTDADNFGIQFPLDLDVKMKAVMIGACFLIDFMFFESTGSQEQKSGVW
# B2: Zinc finger CCHC domain-containing protein 12 (Homo sapiens), Q6PEW1 (parent)
# chain: MASIIARVGNSRRLNAPLPPWAHSMLRSLGRSLGPIMASMADRNMKLFSGRVVPAQGEETFENWLTQVNGVLPDWNMSEEEKLKRLMKTLRGPAREVMRVLQATNPNLSVADFLRAMKLVFGESESSVTAHGKFFNTLQAQGEKASLYVIRLEVQLQNAIQAGIIAEKDANRTRLQQLLLGGELSRDLRLRLKDFLRMYANEQERLPNFLELIRMVREEEDWDDAFIKRKRPKRSESMVERAVSPVAFQGSPPIVIGSADCNVIEIDDTLDDSDEDVILVESQDPPLPSWGAPPLRDRARPQDEVLVIDSPHNSRAQFPSTSGGSGYKNNGPGEMRRARKRKHTIRCSYCGEEGHSKETCDNESDKAQVFENLIITLQELTHTEMERSRVAPGEYNDFSEPL
# B3: Progranulin (Homo sapiens), P28799 (parent)
# chain: MWTLVSWVALTAGLVAGTRCPDGQFCPVACCLDPGGASYSCCRPLLDKWPTTLSRHLGGPCQVDAHCSAGHSCIFTVSGTSSCCPFPEAVACGDGHHCCPRGFHCSADGRSCFQRSGNNSVGAIQCPDSQFECPDFSTCCVMVDGSWGCCPMPQASCCEDRVHCCPHGAFCDLVHTRCITPTGTHPLAKKLPAQRTNRAVALSSSVMCPDARSRCPDGSTCCELPSGKYGCCPMPNATCCSDHLHCCPQDTVCDLIQSKCLSKENATTDLLTKLPAHTVGDVKCDMEVSCPDGYTCCRLQSGAWGCCPFTQAVCCEDHIHCCPAGFTCDTQKGTCEQGPHQVPWMEKAPAHLSLPDPQALKRDVPCDNVSSCPSSDTCCQLTSGEWGCCPIPEAVCCSDHQHCCPQGYTCVAEGQCQRGSEIVAGLEKMPARRASLSHPRDIGCDQHTSCPVGQTCCPSLGGSWACCQLPHAVCCEDRQHCCPAGYTCNVKARSCEKEVVSAQPATFLARSPHVGVKDVECGEGHFCHDNQTCCRDNRQGWACCPYRQGVCCADRRHCCPAGFRCAARGTKCLRREAPRWDAPLRDPALRQLL
# B4: Caspase-10 (Homo sapiens), Q92851-4 (parent)
# chain: MKSQGQHWYSSSDKNCKVSFREKLLIIDSNLGVQDVENLKFLCIGLVPNKKLEKSSSASDVFEHLLAEDLLSEEDPFFLAELLYIIRQKKLLQHLNCTKEEVERLLPTRQRVSLFRNLLYELSEGIDSENLKDMIFLLKDSLPKTEMTSLSFLAFLEKQGKIDEDNLTCLEDLCKTVVPKLLRNIEKYKREKAIQIVTPPVDKEAESYQGEEELVSQTDVKTFLEALPQESWQNKHAGSNGNRATNGAPSLVSRGMQGASANTLNSETSTKRAAVYRMNRNHRGLCVIVNNHSFTSLKDRQGTHKDAEILSHVFQWLGFTVHIHNNVTKVEMEMVLQKQKCNPAHADGDCFVFCILTHGRFGAVYSSDEALIPIREIMSHFTALQCPRLAEKPKLFFIQACQGEEIQPSVSIEADALNPEQAPTSLQDSIPAEADFLLGLATVPGYVSFRHVEEGSWYIQSLCNHLKKLVPRHEDILSILTAVNDDVSRRVDKQGTKKQMPQPAFTLRKKLVFPVPLDALSL
# Variants of: B1
# Settings: with pls1_human PLSCR1, O15162
row,effect of a mutation on the interaction,Variant
1,with no effect,F289L

# Variants of: B2
# Settings: with pnma1_human PNMA1, Q8ND90
# pnma1_human PNMA1, Q8ND90, sequence (Q8ND90 whole entry): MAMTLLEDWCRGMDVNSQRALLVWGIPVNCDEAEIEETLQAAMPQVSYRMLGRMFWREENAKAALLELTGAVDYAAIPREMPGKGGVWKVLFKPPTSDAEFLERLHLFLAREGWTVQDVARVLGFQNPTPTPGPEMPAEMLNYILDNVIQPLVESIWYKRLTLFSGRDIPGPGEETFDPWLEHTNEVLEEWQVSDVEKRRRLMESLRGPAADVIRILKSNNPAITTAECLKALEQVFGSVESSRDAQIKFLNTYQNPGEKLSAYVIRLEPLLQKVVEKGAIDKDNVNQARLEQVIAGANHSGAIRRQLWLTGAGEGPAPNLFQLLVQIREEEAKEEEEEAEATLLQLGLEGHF
row,effect of a mutation on the interaction,Variant
1,with no effect,T344I
2,with no effect,R7C

# Variants of: B2
# Settings: with tfcp2_human TFCP2, Q12800
# tfcp2_human TFCP2, Q12800, sequence (Q12800 whole entry): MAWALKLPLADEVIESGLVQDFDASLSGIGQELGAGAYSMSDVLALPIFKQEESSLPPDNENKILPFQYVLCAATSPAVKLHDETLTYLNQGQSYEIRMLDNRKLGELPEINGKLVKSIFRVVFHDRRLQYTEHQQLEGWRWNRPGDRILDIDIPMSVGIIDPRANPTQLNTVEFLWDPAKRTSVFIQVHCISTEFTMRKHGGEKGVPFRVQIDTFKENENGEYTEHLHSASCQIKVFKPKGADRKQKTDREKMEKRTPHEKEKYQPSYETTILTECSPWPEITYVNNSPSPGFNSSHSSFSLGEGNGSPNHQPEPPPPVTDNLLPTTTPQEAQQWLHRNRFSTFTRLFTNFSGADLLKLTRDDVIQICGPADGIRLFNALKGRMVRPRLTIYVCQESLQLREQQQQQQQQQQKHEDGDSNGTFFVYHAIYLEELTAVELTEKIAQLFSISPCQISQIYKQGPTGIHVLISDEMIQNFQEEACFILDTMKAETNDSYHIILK
row,effect of a mutation on the interaction,Variant
1,with no effect,T344I
2,with no effect,R7C

# Variants of: B3
# Settings: with hxa1_human HOXA1, P49639
# hxa1_human HOXA1, P49639, sequence (P49639 whole entry): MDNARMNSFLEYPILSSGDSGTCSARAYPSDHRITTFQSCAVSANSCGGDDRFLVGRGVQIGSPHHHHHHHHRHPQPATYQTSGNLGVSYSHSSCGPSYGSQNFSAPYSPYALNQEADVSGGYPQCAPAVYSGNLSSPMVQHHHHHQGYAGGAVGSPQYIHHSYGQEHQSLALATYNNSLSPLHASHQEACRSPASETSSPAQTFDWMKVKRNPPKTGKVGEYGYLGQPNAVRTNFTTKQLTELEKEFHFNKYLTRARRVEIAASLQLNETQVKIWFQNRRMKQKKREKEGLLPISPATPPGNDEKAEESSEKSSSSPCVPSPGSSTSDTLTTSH
row,Variant,effect of a mutation on the interaction
1,A9D,disrupting interaction strength
2,P248L,with no effect

# More lines, now with the values ahead:
row,effect of a mutation on the interaction,Variant
1,disrupting interaction strength,R432C
2,with no effect,P451L

# Variants of: B3
# Settings: with ARFGAP1, Q8N6T3-3
# ARFGAP1, Q8N6T3-3, sequence (Q8N6T3 other isoform, or with tags, fused parts or gaps): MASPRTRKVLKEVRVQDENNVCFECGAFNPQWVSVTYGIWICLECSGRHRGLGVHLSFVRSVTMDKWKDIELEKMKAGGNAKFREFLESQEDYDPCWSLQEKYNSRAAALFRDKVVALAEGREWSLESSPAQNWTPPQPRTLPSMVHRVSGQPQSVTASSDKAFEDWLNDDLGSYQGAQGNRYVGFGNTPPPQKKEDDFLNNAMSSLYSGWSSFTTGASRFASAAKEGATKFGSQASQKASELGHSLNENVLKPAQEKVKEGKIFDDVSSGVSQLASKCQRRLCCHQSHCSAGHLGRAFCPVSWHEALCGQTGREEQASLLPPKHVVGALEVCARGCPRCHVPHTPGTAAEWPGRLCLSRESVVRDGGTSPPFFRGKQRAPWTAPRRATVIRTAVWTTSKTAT
row,Variant,effect of a mutation on the interaction
1,A9D,disrupting interaction strength
2,P248L,with no effect

# Further lines, results first:
row,effect of a mutation on the interaction,Variant
1,disrupting interaction strength,R432C
2,disrupting interaction strength,P451L

# Variants of: B3
# Settings: with sgta_human SGTA
row,Variant,effect of a mutation on the interaction
1,A9D,disrupting interaction strength
2,P248L,with no effect

# The next lines start with the values.
row,effect of a mutation on the interaction,Variant
1,disrupting interaction strength,R432C
2,with no effect,P451L

# Variants of: B3
# Settings: with otx1_human OTX1, P32242
# otx1_human OTX1, P32242, sequence (P32242 whole entry): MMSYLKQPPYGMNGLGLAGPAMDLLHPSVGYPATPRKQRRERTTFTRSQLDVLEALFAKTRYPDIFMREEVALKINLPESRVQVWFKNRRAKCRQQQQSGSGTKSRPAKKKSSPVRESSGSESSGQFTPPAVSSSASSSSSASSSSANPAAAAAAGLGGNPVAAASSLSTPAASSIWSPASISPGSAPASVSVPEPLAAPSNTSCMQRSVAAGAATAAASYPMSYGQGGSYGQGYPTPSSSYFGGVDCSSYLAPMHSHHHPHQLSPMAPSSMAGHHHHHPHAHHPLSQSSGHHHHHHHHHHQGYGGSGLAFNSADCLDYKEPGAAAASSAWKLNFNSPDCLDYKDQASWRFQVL
row,Variant,effect of a mutation on the interaction
1,A9D,disrupting interaction strength
2,P248L,with no effect

# Results, then the variant that gave them:
row,effect of a mutation on the interaction,Variant
1,with no effect,R432C
2,with no effect,P451L

# Variants of: B3
# Settings: with ccd33_human CCDC33, Q8N5R6
# ccd33_human CCDC33, Q8N5R6, sequence (Q8N5R6 whole entry): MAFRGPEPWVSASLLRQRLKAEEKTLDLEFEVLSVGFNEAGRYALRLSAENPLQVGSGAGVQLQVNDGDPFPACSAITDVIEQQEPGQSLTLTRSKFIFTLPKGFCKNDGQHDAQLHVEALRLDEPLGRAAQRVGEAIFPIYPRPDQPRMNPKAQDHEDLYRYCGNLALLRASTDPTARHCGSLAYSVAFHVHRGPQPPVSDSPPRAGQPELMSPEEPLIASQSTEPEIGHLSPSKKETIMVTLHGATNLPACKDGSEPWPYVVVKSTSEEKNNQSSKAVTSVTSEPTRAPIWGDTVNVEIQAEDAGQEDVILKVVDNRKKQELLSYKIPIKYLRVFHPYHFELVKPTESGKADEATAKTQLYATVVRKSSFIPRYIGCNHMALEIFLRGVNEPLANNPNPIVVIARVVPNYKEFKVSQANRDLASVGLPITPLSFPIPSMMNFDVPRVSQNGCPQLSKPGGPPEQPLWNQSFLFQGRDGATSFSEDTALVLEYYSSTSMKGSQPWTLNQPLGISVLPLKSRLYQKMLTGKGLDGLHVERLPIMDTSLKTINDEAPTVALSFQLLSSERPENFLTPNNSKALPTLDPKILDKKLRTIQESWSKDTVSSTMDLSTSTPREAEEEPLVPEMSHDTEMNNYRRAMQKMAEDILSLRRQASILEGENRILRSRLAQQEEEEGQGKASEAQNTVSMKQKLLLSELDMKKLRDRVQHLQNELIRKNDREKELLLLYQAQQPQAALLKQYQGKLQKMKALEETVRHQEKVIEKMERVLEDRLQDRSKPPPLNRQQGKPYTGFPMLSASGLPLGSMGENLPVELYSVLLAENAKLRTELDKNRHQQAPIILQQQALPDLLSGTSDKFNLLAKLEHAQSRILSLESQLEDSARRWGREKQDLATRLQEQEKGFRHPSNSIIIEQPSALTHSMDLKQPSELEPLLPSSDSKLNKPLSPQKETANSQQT
row,Variant,effect of a mutation on the interaction
1,A9D,disrupting interaction strength
2,P248L,with no effect

# The next lines start with the values.
row,effect of a mutation on the interaction,Variant
1,disrupting interaction strength,R432C
2,disrupting interaction strength,P451L

# Variants of: B4
# Settings: with xiap_human XIAP
row,effect of a mutation on the interaction,Variant
1,disrupting interaction strength,V410I

# — IntAct's records for PubMed 25910212
